Data: publication PMC10694151, “Regulation of the cell division hydrolase RipC by the FtsEX system in Mycobacterium tuberculosis” (Nature Communications, 2023)

B1: FtsE (Rv3102c) of Mycobacterium tuberculosis (natural protein)
chain: MMITLDHVTKQYKSSARPALDDINVKIDKGEFVFLIGPSGSGKSTFMRLLLAAETPTSGDVRVSKFHVNKLRGRHVPKLRQVIGCVFQDFRLLQQKTVYDNVAFALEVIGKRTDAINRVVPEVLETVGLSGKANRLPDELSGGEQQRVAIARAFVNRPLVLLADEPTGNLDPETSRDIMDLLERINRTGTTVLMATHDHHIVDSMRQRVVELSLGRLVRDEQRGVYGMDR
notes: also called MtbFtsE; NBD
B2: FtsX (Rv3101c) of Mycobacterium tuberculosis (natural protein)
chain: MRFGFLLNEVLTGFRRNVTMTIAMILTTAISVGLFGGGMLVVRLADSSRAIYLDRVESQVFLTEDVSANDSSCDTTACKALREKIETRSDVKAVRFLNRQQAYDDAIRKFPQFKDVAGKDSFPASFIVKLENPEQHKDFDTAMKGQPGVLDVLNQKELIDRLFAVLDGLSNAAFAVALVQAIGAILLIANMVQVAAYTRRTEIGIMRLVGASRWYTQLPFLVEAMLAATMGVGIAVAGLMVVRALFLENALNQFYQANLIAKVDYADILFITPWLLLLGVAMSGLTAYLTLRLYVRR
notes: also called MtbFtsX

Key:
MtbFtsEX/RipC = target: T1, MtbFtsEX/RipC (Mycobacterium tuberculosis, UniProt O05779)
T1 construct: gene ftsE
T1 sequence (P9WHU3 34-385, one chain of several, further chain): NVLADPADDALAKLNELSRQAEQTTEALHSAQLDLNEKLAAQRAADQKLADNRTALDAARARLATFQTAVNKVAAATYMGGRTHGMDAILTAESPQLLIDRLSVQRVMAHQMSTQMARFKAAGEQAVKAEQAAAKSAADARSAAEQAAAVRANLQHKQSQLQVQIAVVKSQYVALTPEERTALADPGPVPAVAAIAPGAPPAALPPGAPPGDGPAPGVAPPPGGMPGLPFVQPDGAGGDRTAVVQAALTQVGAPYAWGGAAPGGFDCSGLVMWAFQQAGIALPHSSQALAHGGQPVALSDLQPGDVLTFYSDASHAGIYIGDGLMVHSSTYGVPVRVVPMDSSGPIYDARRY

[1] = target: B2; test: cryo-EM structure; FtsEX or FtsEX-RipC in peptidiscs, 3 mg/ml, ATP-free; conditions: both partners purified
[2] = target: the molecule itself; test: as above

How did the “cryo-EM structure, 5.7 Å, polyalanine model” value (MtbFtsEX/RipC) turn out when `Nc1ncnc2c1ncn2[C@@H]1O[C@H](COP(=O)(O)OP(=O)(O)O)[C@@H](O)[C@H]1O` [ADP] was run?
The value was “with EM density compatible with an ADP molecule”.

Does B1 bind [1]?
Result: binds

With B2 as the molecule, how does the “stoichiometry N” value [2] read?
Its value is 2.
